Positions count from the first letter of the chain named.
Legend:
Assay in all cases: Chemotaxis assay, L1.2 transfectants migrating to CXCL11
Format in all cases: cell-based
CXCR3 F207A = target: T1, CXCR3 F207A (Homo sapiens, UniProt P49682, F207A)
T1 construct: expressed in transfected cells; host or cells: murine pre-B cell line L1.2, transient transfection
T1 sequence (P49682 1-368 F207A): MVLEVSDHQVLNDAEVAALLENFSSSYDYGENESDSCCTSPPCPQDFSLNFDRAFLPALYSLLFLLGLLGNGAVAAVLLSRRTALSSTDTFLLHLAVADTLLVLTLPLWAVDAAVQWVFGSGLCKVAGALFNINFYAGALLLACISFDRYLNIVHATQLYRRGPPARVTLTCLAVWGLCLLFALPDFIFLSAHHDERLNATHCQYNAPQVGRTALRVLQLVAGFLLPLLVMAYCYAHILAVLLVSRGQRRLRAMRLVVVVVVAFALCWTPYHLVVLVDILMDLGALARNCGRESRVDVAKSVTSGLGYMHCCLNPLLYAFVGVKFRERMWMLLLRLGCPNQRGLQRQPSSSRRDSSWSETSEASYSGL
Protocol: (§1) A previously described pcDNA3 plasmid containing human wild type (WT) CXCR3 cDNA with an HA epitope tag encoded at the N terminus (Meiser et al., [2008]) was used as a template for the generation of point mutants by PCR using the QuikChange II site-directed mutagenesis kit (Stratagene, Amsterdam, the Netherlands). All constructs were verified by DNA sequencing (Eurofins MWG Operon, Ebersberg, Germany) before use. L1.2 cells were transiently transfected by electroporation with 1 μg of vector DNA/10^6 cells at 330V, 975μF and incubated overnight in medium supplemented with 10 mM of sodium butyrate to enhance gene expression.
(§2) Assays of chemotactic responsiveness were carried out as previously described (Vaidehi et al., [2009]) using 96-well ChemoTx® plates with 5 μm pores (Neuroprobe, Gaithersburg, MD, USA). Migrating cells were detected by the use of CellTiter Glo® Dye (Promega, Southampton, UK) and resulting luminescence measured using a TopCount scintillation counter (PerkinElmer, Waltham, MA, USA). Basal migration of cells to buffer alone was subtracted from the resulting data, with individual results expressed as a percentage of the total cells applied to the filter. In all experiments, each data point was assayed in duplicate. In every experiment, cells transiently expressing WT CXCR3 were used as a positive control.

CXCR3 N132A = target: T2, CXCR3 N132A (Homo sapiens, UniProt P49682, N132A)
T2 construct: expressed in transfected cells; host or cells: murine pre-B cell line L1.2, transient transfection
T2 sequence (P49682 1-368 N132A): T1 sequence (P49682 1-368 F207A) with N132A, A207F
Protocol: as §1, §2

CXCR3 V275A = target: T3, CXCR3 V275A (Homo sapiens, UniProt P49682, V275A)
T3 construct: expressed in transfected cells; host or cells: murine pre-B cell line L1.2, transient transfection
T3 sequence (P49682 1-368 V275A): T1 sequence (P49682 1-368 F207A) with A207F, V275A
Protocol: as §1, §2

CXCR3 Y205A = target: T4, CXCR3 Y205A (Homo sapiens, UniProt P49682, Y205A)
T4 construct: expressed in transfected cells; host or cells: murine pre-B cell line L1.2, transient transfection
T4 sequence (P49682 1-368 Y205A): T1 sequence (P49682 1-368 F207A) with Y205A, A207F
Protocol: as §1, §2

CXCR3 Y271A = target: T5, CXCR3 Y271A (Homo sapiens, UniProt P49682, Y271A)
T5 construct: expressed in transfected cells; host or cells: murine pre-B cell line L1.2, transient transfection
T5 sequence (P49682 1-368 Y271A): T1 sequence (P49682 1-368 F207A) with A207F, Y271A
Protocol: as §1, §2

% of WT chemotaxis to 30 nM CXCL11 (mean ± SEM) (CXCR3 F207A): 0.8 ± 0.8% | % of WT chemotaxis to 30 nM CXCL11 (mean ± SEM) (CXCR3 N132A): 0.7 ± 0.5% | % of WT chemotaxis to 30 nM CXCL11 (mean ± SEM) (CXCR3 V275A): 52.9 ± 8.2% | % of WT chemotaxis to 30 nM CXCL11 (mean ± SEM) (CXCR3 Y205A): 35.5 ± 21.5% | % of WT chemotaxis to 30 nM CXCL11 (mean ± SEM) (CXCR3 Y271A): 1.0 ± 0.6%
Substance: CXCL11: recombinant human chemokine, CXCR3 agonist, purchased from PeproTech

— publication PMC4376459, “CXCR3 antagonist VUF10085 binds to an intrahelical site distinct from that of the broad spectrum antagonist TAK-779” (British Journal of Pharmacology, 2015)
